Laboratory results reported in patent US20170088605A1 (Novartis, published 2017).
Where two headings read alike, the source gives them in different places.

T1: BKV serotype I infectious virus (VP1) (BK virus serotype I, UniProt P03088 1-362)
T1 sequence (looked up): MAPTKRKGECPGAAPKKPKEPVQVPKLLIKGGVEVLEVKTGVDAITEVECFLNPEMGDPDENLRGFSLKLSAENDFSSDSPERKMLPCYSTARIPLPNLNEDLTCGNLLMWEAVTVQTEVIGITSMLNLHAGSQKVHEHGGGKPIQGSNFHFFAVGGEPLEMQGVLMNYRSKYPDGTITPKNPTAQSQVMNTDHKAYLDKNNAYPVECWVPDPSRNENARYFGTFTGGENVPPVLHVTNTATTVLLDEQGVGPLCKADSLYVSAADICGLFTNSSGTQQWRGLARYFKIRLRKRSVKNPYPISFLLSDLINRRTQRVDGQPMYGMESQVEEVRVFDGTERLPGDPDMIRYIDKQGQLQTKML


How the values were obtained:
[1] = biological target: T2, JCV infectious virus, isolates Mad-1 and Mad-4 (VP1) (JC virus); test: cell-based or functional assay
JCV VLP (consensus) [2] = biological target: T3, JCV VLP (consensus) (JC virus, UniProt P03089 1-354); test: ELISA on plates coated with JCV VLPs, OD 450 nm
T3 construct: also called JCV VLPs; JC virus VLPs

JCV VLP (consensus) [3] = biological target: T3, JCV VLP (consensus); test: ELISA on coated JCV VLPs
[4] = biological target: T4, BKV serotype II chimeric infectious virus (VP1 of isolate SB) (BK virus serotype II); test: cell-based or functional assay
[5] = biological target: BKV serotype III chimeric infectious virus (VP1 of isolate AS) (BK virus serotype III); test: cell-based or functional assay
[6] = biological target: BKV serotype IV chimeric infectious virus (VP1 of strain ITA-4) (BK virus serotype IV); test: cell-based or functional assay
[7] = biological target: T4, BKV serotype II chimeric infectious …; test: cell-based or functional assay; remark: listed apart in the source
[8] = biological target: T1, BKV serotype I infectious virus (VP1); test: cell-based or functional assay
[9] = biological target: T2, JCV infectious virus, isolates Mad-1 …; test: cell-based or functional assay; remark: listed apart in the source
[10] = biological target: pooled RAV virus (BKV serotype I, 20 amino acid changes throughout VP1) (BK virus serotype I); test: cell-based or functional assay
[11] = biological target: T5, BKV serotype III VP1 pentamer (BK virus serotype III, UniProt P14996 30-297); test: SET (solution equilibrium titration) on VP1 pentamers
T5 construct: also called serotype III pentamers

[12] = biological target: T6, BKV serotype IV VP1 pentamer (BK virus serotype IV, UniProt P14996 30-297); test: as above
T6 construct: also called serotype IV pentamers

[13] = biological target: T7, BKV serotype I VP1 pentamer (BK virus serotype I, UniProt P03088 30-297); test: as above
T7 construct: also called serotype I pentamers; BKV-VP1 serotype I pentameric protein

[14] = biological target: T8, BKV serotype II VP1 pentamer (BK virus serotype II, UniProt P14996 30-297); test: as above
T8 construct: also called serotype II pentamers

| Binder | neutralization EC50 [1] | neutralization EC90 [1] | EC50 (read off the curve) (JCV VLP (consensus) [2]) | IC50 (JCV VLP (consensus) [3]) | activity (EC90), fold more potent than NEG447 [4] | neutralization EC50 [5] | neutralization EC90 [5] | neutralization EC50 [6] | neutralization EC90 [6] | neutralization EC50 [7] | neutralization EC90 [7] | neutralization EC50 [8] | neutralization EC90 [8] | neutralization EC50 [9] | neutralization EC90 [9] | EC50 of neutralization, fold change against wild-type virus [10] | Kd [11] | Kd [12] | Kd [13] | Kd [14] |
| --- | --- | --- | --- | --- | --- | --- | --- | --- | --- | --- | --- | --- | --- | --- | --- | --- | --- | --- | --- | --- |
| 2077-7-5 (antibody, V domains shown) VH: EVQLQQSGPELVKPGASMKISCKASGYSFTGYTMNWVKQSHGKNLEWIGLFNPYNGGINYNQKFKGKATLTVDKSSSTAYMELLSLTSEDSAVYYCARLRYYGIGDDFFDYWGQGTSLTVSS VL: DIVMTQSHKFMSTSVGDRVSITCKASRDVGTAVAWYQQKPGQSPKLLIYWASTRHTGVPDRFTGSGSGTDFTLTISNVQSEDLADYFCQQYSNYPYTFGGGTKLEMK | 0.097 µg/mL | 1.1 µg/mL | ~600 pM | 651 pM | – | – | – | – | – | – | – | – | – | – | – | – | – | – | – | – |
| 2077-26-1 (antibody, V domains shown) VH: EVQLQQSGPDLVKPGASMKLSCKASGYSFTGYTMNWVKQSHGKNLEWIGLFNPYNGGPSYNQKFKGKATLTVDKSSSTAYMELLSLTPEDSAVYYCARLRYYGIGDDFFDYWGQGTTLTVSS VL: DIVMTQSHKFMSTSVGDRVSITCKASQDVGTAVAWYQEKPGQSPKLLIYWASTRHTGVPDRFTGSGSGTDFTLTISNVQSEDLAYYFCQQYSNYPYTFGGGTKLEIK | 0.702 µg/mL | 3.2 µg/mL | ~60 pM | 67 pM | – | – | – | – | – | – | – | – | – | – | – | – | – | – | – | – |
| 2077-28-2 (antibody, V domains shown) VH: EVQLQQSGPELVKPGASMKISCKASGYSFTGYTMNWVKQSHGKNLEWIGLFNPYNGGATYNQRFKGKATLTVDKSSSTAYMDLLSLTSEDSAVYYCTRLRKYGIGDDFFDYWGQGTTLTVSS VL: DIVMTQSHKFMSTSVGDRVSITCKASQDVGTAVAWYQQKPGQSPKLLIYWASTRHTGVPDRFTGSGSGTDFTLTISNVQSEDLADYFCQQYSTYTYTFGGGTKLEIK | 0.347 µg/mL | 6.82 µg/mL | ~90 pM | 88 pM | – | – | – | – | – | – | – | – | – | – | – | – | – | – | – | – |
| 2077-10-1 (antibody, V domains shown) VH: EVQLQQSGPELVKPGASMKISCKASGYSFTGYTMNWMKQGHGKNLEWIGLFNPYNGGPNYNQKFKGKATLTVDKSSSTAYMELLSLTSEDSAVYYCARLRYYGIGDDFFDYWGQGTTLTVSS VL: DIVMTQSHKFMSTSVGDRVSITCKASQDVGTAVAWYQQKPGQSPKLLIYWASTRHTGVPDRFTGSGSGTDFTLTITNVQSEDLTDYFCQQYSSYPYTFGGGTKLEIK | 1.49 µg/mL | > 10 µg/mL | ~90 pM | 100 pM | – | – | – | – | – | – | – | – | – | – | – | – | – | – | – | – |
| NEG447A (antibody, human IgG1, lambda, V domains shown) VH: QVQLQESGPGLVKPSETLSLTCTVSGGSISRDYWSWVRQPPGAGLEWIGNIYYSGSTNYNPSLKSRVTISVATNKKQFSLKLTSVTAADTAVYYCARVPGCSSTSCIDGWFDPWGQGILVTVSS VL: QSVLTQPPSVSAAPGQKVTISCSGSSSNIGNTYVSWYQQLPGTAPKLLIYDNNKRPSGIPDRFSGSKSGTSATLGITGLQTGDEADYYCGTWDSSLSAWVFGGGTRLTVLG | – | – | – | – | ~8 fold | > 100 µg/mL | > 100 µg/mL | 0.011 µg/mL | 0.26 µg/mL | 0.11 µg/mL | 0.84 µg/mL | 0.0001 µg/mL | 0.094 µg/mL | – | – | – | – | – | – | – |
| P8D11 (antibody, human IgG1, lambda) heavy: not shown light: QSVLTQPPSVSVAPGKTARITCGGDNIGSRPVHWYQQKPGQAPILVVYDDSNRPSGIPERFSGSNSGNTATLTISRVEAGDEADYYCQVWSSSTDHPFGGGTKVTVLGQPKAAPSVTLFPPSSEELQANKATLVCLISDFYPGAVTVAWKADSSPVKAGVETTTPSKQSNNKYAASSYLSLTPEQWKSHRSYSCQVTHEGSTVEKTVAPTECS | – | – | – | – | – | 0.092 µg/mL | 0.53 µg/mL | 0.023 µg/mL | 0.39 µg/mL | 0.089 µg/mL | 6.34 µg/mL | 0.015 µg/mL | 0.24 µg/mL | 0.09 µg/mL | 2.76 µg/mL | 3.9 fold | – | – | – | – |
| P8D11C (antibody, V domains shown) VH: QVQLVESGGTLVQPGGSLRLSCAASGFTFQNYWMTWVRQAPGKGLEWVANIKKDGSEKYYVDSVRGRFTISRDNAKNSLFLQMNSLRPEDTAVYFCATVRSGRYFALDDWGQGTLVTVSS VL: QSVLTQPPSVSVAPGKTARITCGGDNIGSRPVHWYQQKPGQAPILVVYDDSNRPSGIPERFSGSNSGNTATLTISRVEAGDEADYYCQVWSSSTDHPFGGGTKVTVLG | – | – | – | – | – | 0.049 µg/mL | 0.51 µg/mL | 0.005 µg/mL | 0.54 µg/mL | 0.18 µg/mL | 0.5 µg/mL | 0.0003 µg/mL | 0.34 µg/mL | – | – | – | 4.8 pM | 2.7 pM | 4.5 pM | 2.7 pM |
| P8D11D (antibody) heavy: not shown light: QSVLTQPPSVSVAPGKTARITCGGDNIGSRPVHWYQQKPGQAPILVVYDDSNRPSGIPERFSGSNSGNTATLTISRVEAGDEADYYCQVWSSSTDHPFGGGTKVTVLGQPKAAPSVTLFPPSSEELQANKATLVCLISDFYPGAVTVAWKADSSPVKAGVETTTPSKQSNNKYAASSYLSLTPEQWKSHRSYSCQVTHEGSTVEKTVAPTECS | – | – | – | – | – | 0.185 µg/mL | 0.87 µg/mL | 0.003 µg/mL | 0.063 µg/mL | 0.161 µg/mL | 1.64 µg/mL | 0.034 µg/mL | 0.15 µg/mL | – | – | – | 5 pM | 3.2 pM | 5 pM | 2 pM |
| P8D11B (antibody, V domains shown) VH: QVQLVESGGTLVQPGGSLRLSCAASGFTFKNYWMTWVRQAPGKGLEWVANIKKDGSEKYYVDSVRGRFTISRDNAKNSLFLQMNSLRPEDTAVYFCATVRSGRYFALDDWGQGTLVTVSS VL: QSVLTQPPSVSVAPGKTARITCGGDNIGSRPVHWYQQKPGQAPILVVYDDSNRPSGIPERFSGSNSGNTATLTISRVEAGDEADYYCQVWSSSTDHPFGGGTKVTVLG | – | – | – | – | – | 0.014 µg/mL | 0.5 µg/mL | 0.005 µg/mL | 0.54 µg/mL | 0.088 µg/mL | 1.93 µg/mL | 0.003 µg/mL | 0.3 µg/mL | – | – | – | 2.5 pM | 2.9 pM | 3.8 pM | 1.8 pM |
| P8D11E (antibody) heavy: not shown light: QSVLTQPPSVSVAPGKTARITCGGDNIGSRPVHWYQQKPGQAPILVVYDDSNRPSGIPERFSGSNSGNTATLTISRVEAGDEADYYCQVWSSSTDHPFGGGTKVTVLGQPKAAPSVTLFPPSSEELQANKATLVCLISDFYPGAVTVAWKADSSPVKAGVETTTPSKQSNNKYAASSYLSLTPEQWKSHRSYSCQVTHEGSTVEKTVAPTECS | – | – | – | – | – | 0.236 µg/mL | 0.9 µg/mL | 0.002 µg/mL | 0.087 µg/mL | 0.144 µg/mL | 2.52 µg/mL | 0.032 µg/mL | 0.11 µg/mL | – | – | – | 6 pM | 2.7 pM | 4.3 pM | 1.7 pM |
| P8D11A (antibody, V domains shown) VH: QVQLVESGGTLVQPGGSLRLSCAASGFTFSNYWMTWVRQAPGKGLEWVANIKKDGSEKYYVDSVRGRFTISRDNAKNSLFLQMNSLRPEDTAVYFCATVRSGRYFALDDWGQGTLVTVSS VL: QSVLTQPPSVSVAPGKTARITCGGDNIGSRPVHWYQQKPGQAPILVVYDDSNRPSGIPERFSGSNSGNTATLTISRVEAGDEADYYCQVWSSSTDHPFGGGTKVTVLG | – | – | – | – | – | 0.01 µg/mL | 0.59 µg/mL | 0.015 µg/mL | 0.064 µg/mL | 0.029 µg/mL | 8.68 µg/mL | 0.005 µg/mL | 0.19 µg/mL | – | – | – | 3.7 pM | 2.9 pM | 4.4 pM | 2.5 pM |
